This passage reports β-galactosidase activity results from article PMC3429642.

This test addresses Full-length DEMETER (DME) fused with the GAL4 DNA binding domain (Arabidopsis) (UniProt Q8LK56). As to the kind of experiment: two-hybrid.
UniProt Q8LK56, sequence (Q8LK56 whole entry, the tested form may be a part): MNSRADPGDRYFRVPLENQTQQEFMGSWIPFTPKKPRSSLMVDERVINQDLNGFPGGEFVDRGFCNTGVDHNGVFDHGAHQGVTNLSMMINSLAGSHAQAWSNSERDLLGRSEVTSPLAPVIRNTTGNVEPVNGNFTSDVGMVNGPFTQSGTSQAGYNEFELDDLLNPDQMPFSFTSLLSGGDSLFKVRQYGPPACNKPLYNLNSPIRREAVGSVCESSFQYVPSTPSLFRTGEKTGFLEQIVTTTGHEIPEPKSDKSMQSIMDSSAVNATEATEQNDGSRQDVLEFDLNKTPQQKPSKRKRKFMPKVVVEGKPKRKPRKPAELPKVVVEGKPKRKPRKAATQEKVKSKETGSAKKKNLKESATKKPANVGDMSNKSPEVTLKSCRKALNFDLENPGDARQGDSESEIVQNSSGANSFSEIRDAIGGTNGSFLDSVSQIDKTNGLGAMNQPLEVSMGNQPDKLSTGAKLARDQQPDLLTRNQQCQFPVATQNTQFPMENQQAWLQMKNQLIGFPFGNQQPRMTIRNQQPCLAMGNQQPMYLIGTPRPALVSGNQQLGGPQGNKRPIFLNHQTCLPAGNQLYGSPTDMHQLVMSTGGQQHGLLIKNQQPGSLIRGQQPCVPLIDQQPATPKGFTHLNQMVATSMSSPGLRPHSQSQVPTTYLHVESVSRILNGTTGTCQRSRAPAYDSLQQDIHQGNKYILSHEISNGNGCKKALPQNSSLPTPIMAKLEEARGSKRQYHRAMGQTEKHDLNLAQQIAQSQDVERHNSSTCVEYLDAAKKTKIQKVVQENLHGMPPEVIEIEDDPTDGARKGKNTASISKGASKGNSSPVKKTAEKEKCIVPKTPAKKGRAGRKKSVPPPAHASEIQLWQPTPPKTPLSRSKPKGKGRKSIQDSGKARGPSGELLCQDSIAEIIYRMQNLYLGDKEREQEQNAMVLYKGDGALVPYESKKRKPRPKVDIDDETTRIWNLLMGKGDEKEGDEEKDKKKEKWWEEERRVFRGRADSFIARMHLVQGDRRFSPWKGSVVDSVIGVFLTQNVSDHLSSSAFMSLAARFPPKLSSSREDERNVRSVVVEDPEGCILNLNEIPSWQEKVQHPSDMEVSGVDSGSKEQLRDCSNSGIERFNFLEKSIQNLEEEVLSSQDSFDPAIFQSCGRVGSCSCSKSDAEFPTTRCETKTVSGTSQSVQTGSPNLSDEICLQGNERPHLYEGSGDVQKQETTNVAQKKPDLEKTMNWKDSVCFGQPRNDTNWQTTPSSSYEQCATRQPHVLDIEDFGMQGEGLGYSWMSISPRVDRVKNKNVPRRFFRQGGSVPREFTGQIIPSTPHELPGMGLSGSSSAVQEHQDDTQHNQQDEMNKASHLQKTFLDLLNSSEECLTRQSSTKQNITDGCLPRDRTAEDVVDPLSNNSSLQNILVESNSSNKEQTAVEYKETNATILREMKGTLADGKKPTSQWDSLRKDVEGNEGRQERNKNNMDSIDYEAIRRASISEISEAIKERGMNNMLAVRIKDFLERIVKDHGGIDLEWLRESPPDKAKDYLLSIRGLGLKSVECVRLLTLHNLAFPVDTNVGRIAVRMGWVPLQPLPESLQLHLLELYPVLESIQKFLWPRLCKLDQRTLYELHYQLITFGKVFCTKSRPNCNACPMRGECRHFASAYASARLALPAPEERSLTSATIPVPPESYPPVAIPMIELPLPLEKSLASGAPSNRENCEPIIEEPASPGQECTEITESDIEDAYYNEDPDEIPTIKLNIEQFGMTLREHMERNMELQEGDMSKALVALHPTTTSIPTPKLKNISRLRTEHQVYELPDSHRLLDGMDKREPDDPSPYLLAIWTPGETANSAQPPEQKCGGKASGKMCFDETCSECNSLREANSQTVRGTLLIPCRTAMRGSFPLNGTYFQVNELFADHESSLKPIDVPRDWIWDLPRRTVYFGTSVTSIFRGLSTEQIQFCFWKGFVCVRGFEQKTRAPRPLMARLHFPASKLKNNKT

“Histone H1.2 fused with the GAL4 activation domain (natural protein)” came in with a β-galactosidase activity of 1.67 units.
